As usually defined, the EC50 is the concentration at which the effect is half-maximal.

These results are taken from patent publication US20240067748A1.

Experiment [1] addresses human Trop2 on cells (human) (UniProt P09758). Description: flow cytometry on BxPC-3 tumor cells; negative control. In general terms: Flow cytometry measures light scatter and fluorescence of single cells or particles in a stream.
For experiment [2], the target named is monkey Trop2 on CHO-K1 cells (monkey). Description: flow cytometry on CHO-K1/monkey Trop2 cells; negative control.
Experiment [3] has the same target. The experiment is described as follows: flow cytometry on CHO-K1/monkey Trop2 cells (second run); negative control.
The target in experiment [4] is human Trop2 on cells (human) (UniProt P09758). Description: flow cytometry on BxPC-3 tumor cells (second panel of the table); negative control.
human Trop2 on cells (human), sequence (P09758 27-323): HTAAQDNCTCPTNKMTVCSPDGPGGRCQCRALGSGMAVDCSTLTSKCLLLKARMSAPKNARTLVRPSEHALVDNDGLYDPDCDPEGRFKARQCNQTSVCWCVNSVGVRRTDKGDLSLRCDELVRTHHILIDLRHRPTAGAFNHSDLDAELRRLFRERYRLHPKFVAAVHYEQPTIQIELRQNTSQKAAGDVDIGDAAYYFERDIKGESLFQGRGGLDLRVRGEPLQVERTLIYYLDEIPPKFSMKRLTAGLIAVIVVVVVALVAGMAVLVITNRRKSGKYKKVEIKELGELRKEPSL

monkey Trop2 on CHO-K1 cells (monkey), sequence (A0A2K5 entry or part of it limits assumed): as the sequence (P09758 27-323) above, with M36V, K46E, S67N, I204V, M266V, T272S counted along it

hIgG1 (antibody): the Maximum MFI value turned out to be 77 MFI in experiment [1], 277 MFI in experiment [2], 109 MFI in experiment [3] and 670 MFI in experiment [4]. Also, the EC50 in experiment [2] stood at 1.89 µM.
